# Like-named read-outs stand apart in the source and are kept apart here. Ends that are not written are not given here.
# B1: SEQ ID NO:67 peptide (peptide)
# peptide: GNTDEAQEELAWKIAKMIVSDIMQQ
# modifications: also: cellulose-bound
# B2: SEQ ID NO:72 peptide (peptide)
# peptide: AQEELAWKIAKMIVSDIMQQ
# modifications: also: cellulose-bound
# B3: SEQ ID NO:92 peptide (peptide)
# peptide: VQGNTDEAQEELAWKIA
# modifications: also: cellulose-bound
# B4: SEQ ID NO:75 peptide (peptide)
# peptide: ELAWKIAKMIVSDIMQQ
# modifications: also: cellulose-bound
# B5: SEQ ID NO:74 peptide (peptide)
# peptide: EELAWKIAKMIVSDIMQQ
# modifications: also: cellulose-bound
# B6: SEQ ID NO:69 peptide (peptide)
# peptide: TDEAQEELAWKIAKMIVSDIMQQ
# modifications: also: cellulose-bound
# B7: PV-37 (SEQ ID NO:104) FEELAWKIAKMIWSDVMQQC, rhodamine-labeled (peptide)
# peptide: FEELAWKIAKMIWSDVMQQC(tetramethylrhodamine‑5‑maleimide)-NH2
# B8: PV-49 (SEQ ID NO:107) FEELAWKIAKMIISDVFQQC, rhodamine-labeled (peptide)
# peptide: FEELAWKIAKMIISDVFQQC(tetramethylrhodamine‑5‑maleimide)-NH2
# B9: PV-47 (SEQ ID NO:105) QEEFAWKIAKMIVSDVFQQC, rhodamine-labeled (peptide)
# peptide: QEEFAWKIAKMIVSDVFQQC(tetramethylrhodamine‑5‑maleimide)-NH2
# B10: PV-48 (SEQ ID NO:106) QEEFAWKIAKMIISDVFQQC, rhodamine-labeled (peptide)
# peptide: QEEFAWKIAKMIISDVFQQC(tetramethylrhodamine‑5‑maleimide)-NH2
# B11: SEQ ID NO:76 peptide (peptide)
# peptide: LAWKIAKMIVSDIMQQ
# modifications: also: cellulose-bound
# B12: SEQ ID NO:93 peptide (peptide)
# peptide: VQGNTDEAQEELAWKI
# modifications: also: cellulose-bound
# B13: SEQ ID NO:83 peptide (peptide)
# peptide: VQGNTDEAQEELAWKIAKMIVSDIMQ
# modifications: also: cellulose-bound
# B14: SEQ ID NO:71 peptide (peptide)
# peptide: EAQEELAWKIAKMIVSDIMQQ
# modifications: also: cellulose-bound
# B15: SEQ ID NO:87 peptide (peptide)
# peptide: VQGNTDEAQEELAWKIAKMIVS
# modifications: also: cellulose-bound
# B16: SEQ ID NO:77 peptide (peptide)
# peptide: AWKIAKMIVSDIMQQ
# modifications: also: cellulose-bound
# B17: SEQ ID NO:70 peptide (peptide)
# peptide: DEAQEELAWKIAKMIVSDIMQQ
# modifications: also: cellulose-bound
# B18: SEQ ID NO:73 peptide (peptide)
# peptide: QEELAWKIAKMIVSDIMQQ
# modifications: also: cellulose-bound
# B19: SEQ ID NO:85 peptide (peptide)
# peptide: VQGNTDEAQEELAWKIAKMIVSDI
# modifications: also: cellulose-bound
# B20: SEQ ID NO:97 peptide (peptide)
# peptide: VQGNTDEAQEEL
# modifications: also: cellulose-bound
# B21: SEQ ID NO:84 peptide (peptide)
# peptide: VQGNTDEAQEELAWKIAKMIVSDIM
# modifications: also: cellulose-bound
# B22: SEQ ID NO:112 peptide Ac-DLAWKIAKMIVSDVMQQC, rhodamine-labeled (peptide)
# peptide: Ac-DLAWKIAKMIVSDVMQQC(tetramethylrhodamine‑5‑maleimide)-NH2
# B23: SEQ ID NO:66 peptide (peptide)
# peptide: QGNTDEAQEELAWKIAKMIVSDIMQQ
# modifications: also: cellulose-bound
# B24: SEQ ID NO:94 peptide (peptide)
# peptide: VQGNTDEAQEELAWK
# modifications: also: cellulose-bound
# B25: SEQ ID NO:98 peptide (peptide)
# peptide: VQGNTDEAQEE
# modifications: also: cellulose-bound
# B26: SEQ ID NO:86 peptide (peptide)
# peptide: VQGNTDEAQEELAWKIAKMIVSD
# modifications: also: cellulose-bound
# B27: SEQ ID NO:88 peptide (peptide)
# peptide: VQGNTDEAQEELAWKIAKMIV
# modifications: also: cellulose-bound
# B28: SEQ ID NO:91 peptide (peptide)
# peptide: VQGNTDEAQEELAWKIAK
# modifications: also: cellulose-bound
# B29: SEQ ID NO:95 peptide (peptide)
# peptide: VQGNTDEAQEELAW
# modifications: also: cellulose-bound
# B30: SEQ ID NO:96 peptide (peptide)
# peptide: VQGNTDEAQEELA
# modifications: also: cellulose-bound
# B31: SEQ ID NO:90 peptide (peptide)
# peptide: VQGNTDEAQEELAWKIAKM
# modifications: also: cellulose-bound
# B32: SEQ ID NO:68 peptide (peptide)
# peptide: NTDEAQEELAWKIAKMIVSDIMQQ
# modifications: also: cellulose-bound
# B33: SEQ ID NO:99 peptide (peptide)
# peptide: VQGNTDEAQE
# modifications: also: cellulose-bound
# B34: SEQ ID NO:89 peptide (peptide)
# peptide: VQGNTDEAQEELAWKIAKMI
# modifications: also: cellulose-bound
# B35: SEQ ID NO:111 peptide (. . . QEELAWKIAKMIWSDVMQQC), rhodamine-labeled (peptide)
# peptide: VQGNTDEAQEELAWKIAKMIWSDVMQQC(tetramethylrhodamine‑5‑maleimide)-NH2
# notes: also called single mutant V21W
# What was measured:
# GFP-RIα D/D [1] = biological target: T1, GFP-RIα D/D (bovine, UniProt P00514 1-109); test: SPOT peptide array, anti-GFP detection
# T1 construct: range 1-109; His tag cleaved with thrombin; also called dimerization/docking (D/D) domain of bovine RIα (residues 1-109) fused to GFP; not shown: green fluorescent protein (GFP)
# T1 sequence (P00514 1-109): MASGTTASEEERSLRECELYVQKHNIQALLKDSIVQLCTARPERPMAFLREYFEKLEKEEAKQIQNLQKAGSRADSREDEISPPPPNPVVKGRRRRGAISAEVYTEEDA
# GFP-RIIα D/D [2] = biological target: T2, GFP-RIIα D/D (mouse, UniProt P12367 1-46); test: SPOT peptide array, anti-GFP detection
# T2 construct: range 1-46; His tag cleaved with thrombin; also called GFP-RII D/D; D/D domain of mouse RIIα (residues 1-46) fused to GFP; not shown: green fluorescent protein (GFP)
# T2 sequence (P12367 1-46): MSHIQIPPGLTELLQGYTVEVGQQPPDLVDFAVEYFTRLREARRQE
# GFP-RIα D/D [3] = biological target: T1, GFP-RIα D/D; test: SPOT peptide array, anti-GFP detection; remark: listed apart in the source
# Experimental: (§1) In addition, the minimal sequence required for regulatory subunit binding was also assessed using N- and C-terminal truncations of the 27-residue human D-AKAP2 sequence. N-terminal or C-terminal truncated peptides were synthesized using SPOT synthesis on cellulose membrane as described herein. Binding was evaluated by incubating each membrane with GFP-RIα D/D and GFP-RIIα D/D as indicated below. The dimerization/docking (D/D) domain of bovine RIα (residues 1-109) and mouse RIIα (residues 1-46), fused to green fluorescence protein (GFP) were subcloned into a pRSET expression vector (Invitrogen, Carlsbad, Calif.) downstream of a histidine tag. The proteins, GFP-RIα D/D and GFP-RIIα D/D were expressed in E. coli BL21 (DE3) and purified using Talon (Clontech, Palo Alto, Calif.) resin. The His tag was cleaved using thrombin and the protein further purified using an S75-Sephadex (16/60) gel filtration column (Pharmacia, Peapack, N.J.) in 50 mM MES pH 5.8, 50 mM NaCl, 2 mM EDTA, 2 mM EGTA, 2 mM DTT. The protein was stored at 4° C.
# (§2) Bound protein was detected using a primary antibody against GFP and enzyme conjugated secondary antibody for amplification of signal. The membrane was then analyzed by chemiluminescence.
# GFP-RIIα D/D [4] = biological target: T2, GFP-RIIα D/D; test: SPOT peptide array, anti-GFP detection; remark: listed apart in the source
# Experimental: as §1, §2
# Full-length murine RIIα = biological target: T3, Full-length murine RIIα (murine, UniProt P12367 2-401); test: fluorescence anisotropy, labeled peptide
# T3 construct: mature; given as full-length
# T3 sequence (P12367 2-401): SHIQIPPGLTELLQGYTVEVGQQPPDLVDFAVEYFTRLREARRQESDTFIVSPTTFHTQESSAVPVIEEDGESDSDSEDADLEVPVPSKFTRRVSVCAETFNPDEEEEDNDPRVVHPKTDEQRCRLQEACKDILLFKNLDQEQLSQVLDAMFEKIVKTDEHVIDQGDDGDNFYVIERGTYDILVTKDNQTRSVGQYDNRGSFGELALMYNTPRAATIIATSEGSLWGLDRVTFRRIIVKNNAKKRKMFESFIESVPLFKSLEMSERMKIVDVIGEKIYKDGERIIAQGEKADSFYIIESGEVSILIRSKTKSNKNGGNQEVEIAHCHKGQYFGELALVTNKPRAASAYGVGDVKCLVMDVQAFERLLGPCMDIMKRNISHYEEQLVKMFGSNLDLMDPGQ
# Experimental: (§3) Binding of each fluorescently labeled peptide to the regulatory subunits was monitored using fluorescence anisotropy. RIα and RIIα were serially diluted beginning at 1 μM and 0.1 μM, respectively, into 10 mM HEPES pH 7.4, 0.15 M NaCl, 3 mM EDTA, 0.005% Surfactant P20 (Biacore) containing either 10 nM or 1 nM of fluorescently labeled peptide for RIα and RIIα, respectively. The samples were equilibrated for at least 1 hour at room temperature and fluorescence anisotropy monitored using a Fluoromax-2 (Jobin Yvon Horiba, SPEX Division, Edison, N.J.) equipped with Glan-Thompson polarizers. The rhodamine-labeled peptide was excited at 541 nm (5-10 nm bandpass) and emission monitored at 575 nm (5-10 nm bandpass). The anisotropy was calculated directly with the Fluoromax software using the following equation: […]
# (§4) Several additional truncated and substituted peptides were synthesized and their affinity to RIα and RIIα evaluated using fluorescence anisotropy (see Table 8). Binding was evaluated for both RIα and RIIα0 using fluorescence anisotropy as described herein. Substituted residues are in bold Table 8. Tryptophan at a position corresponding to residue 21 of SEQ ID NO:2 is important for discriminating against binding to the RIIα subunit.
# Full-length bovine RIα = biological target: T4, Full-length bovine RIα (bovine, UniProt P00514 1-380); test: fluorescence anisotropy, labeled peptide
# T4 construct: mature; given as full-length
# T4 sequence (P00514 whole entry): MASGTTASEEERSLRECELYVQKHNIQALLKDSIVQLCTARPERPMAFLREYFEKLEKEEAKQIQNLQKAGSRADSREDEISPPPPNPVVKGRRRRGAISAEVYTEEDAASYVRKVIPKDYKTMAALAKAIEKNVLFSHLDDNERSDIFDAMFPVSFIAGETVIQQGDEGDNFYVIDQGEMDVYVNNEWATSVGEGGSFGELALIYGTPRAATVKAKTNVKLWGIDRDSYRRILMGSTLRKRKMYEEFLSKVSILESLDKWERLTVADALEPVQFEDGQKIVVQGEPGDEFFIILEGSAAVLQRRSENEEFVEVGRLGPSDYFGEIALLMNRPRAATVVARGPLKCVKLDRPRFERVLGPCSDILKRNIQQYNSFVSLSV
# Experimental: as §3, §4
binder,measurement,setting,value
B1,binding result,GFP-RIα D/D [1],binds
same,binding result,GFP-RIIα D/D [2],binds
B2,binding result,GFP-RIα D/D [1],binds
same,binding result,GFP-RIIα D/D [2],binds
B3,binding result,GFP-RIα D/D [3],no binding
same,binding result,GFP-RIIα D/D [4],no binding
B4,binding result,GFP-RIα D/D [1],binds
same,binding result,GFP-RIIα D/D [2],binds
B5,binding result,GFP-RIα D/D [1],binds
same,binding result,GFP-RIIα D/D [2],binds
B6,binding result,GFP-RIα D/D [1],binds
same,binding result,GFP-RIIα D/D [2],binds
B7,Kd,Full-length murine RIIα,150 nM
same,Kd,Full-length bovine RIα,19 nM
B8,Kd,Full-length murine RIIα,2.5 nM
same,Kd,Full-length bovine RIα,1.1 nM
B9,Kd,Full-length murine RIIα,89 nM
same,Kd,Full-length bovine RIα,39 nM
B10,Kd,Full-length murine RIIα,124 nM
same,Kd,Full-length bovine RIα,12 nM
B11,binding result,GFP-RIIα D/D [2],binds
B12,binding result,GFP-RIα D/D [3],no binding
same,binding result,GFP-RIIα D/D [4],no binding
B13,binding result,GFP-RIα D/D [3],binds
same,binding result,GFP-RIIα D/D [4],binds
B14,binding result,GFP-RIα D/D [1],binds
same,binding result,GFP-RIIα D/D [2],binds
B15,binding result,GFP-RIα D/D [3],no binding
same,binding result,GFP-RIIα D/D [4],binds
B16,binding result,GFP-RIIα D/D [2],binds
B17,binding result,GFP-RIα D/D [1],binds
same,binding result,GFP-RIIα D/D [2],binds
B18,binding result,GFP-RIα D/D [1],binds
same,binding result,GFP-RIIα D/D [2],binds
B19,binding result,GFP-RIα D/D [3],binds
same,binding result,GFP-RIIα D/D [4],binds
B20,binding result,GFP-RIα D/D [3],no binding
same,binding result,GFP-RIIα D/D [4],no binding
B21,binding result,GFP-RIα D/D [3],binds
same,binding result,GFP-RIIα D/D [4],binds
B22,Kd,Full-length murine RIIα,107 nM
same,Kd,Full-length bovine RIα,773 nM
B23,binding result,GFP-RIα D/D [1],binds
same,binding result,GFP-RIIα D/D [2],binds
B24,binding result,GFP-RIα D/D [3],no binding
same,binding result,GFP-RIIα D/D [4],no binding
B25,binding result,GFP-RIα D/D [3],no binding
same,binding result,GFP-RIIα D/D [4],no binding
B26,binding result,GFP-RIα D/D [3],no binding
same,binding result,GFP-RIIα D/D [4],binds
B27,binding result,GFP-RIα D/D [3],no binding
same,binding result,GFP-RIIα D/D [4],binds
B28,binding result,GFP-RIα D/D [3],no binding
same,binding result,GFP-RIIα D/D [4],no binding
B29,binding result,GFP-RIα D/D [3],no binding
same,binding result,GFP-RIIα D/D [4],no binding
B30,binding result,GFP-RIα D/D [3],no binding
same,binding result,GFP-RIIα D/D [4],no binding
B31,binding result,GFP-RIα D/D [3],no binding
same,binding result,GFP-RIIα D/D [4],no binding
B32,binding result,GFP-RIα D/D [1],binds
same,binding result,GFP-RIIα D/D [2],binds
B33,binding result,GFP-RIα D/D [3],no binding
same,binding result,GFP-RIIα D/D [4],no binding
B34,binding result,GFP-RIα D/D [3],no binding
same,binding result,GFP-RIIα D/D [4],no binding
B35,Kd,Full-length murine RIIα,83 nM
same,Kd,Full-length bovine RIα,120 nM
